{
  "source": "patent US20020031818A1",
  "about": "“Modification of Mdm2 activity” (priority 2000, published 2002)",
  "key": {"[1]": {"biological_target": "T1, GST-Mdm2 (Homo sapiens, UniProt Q00987)", "T1 construct": "made in house", "T1 sequence (Q00987 whole entry)": "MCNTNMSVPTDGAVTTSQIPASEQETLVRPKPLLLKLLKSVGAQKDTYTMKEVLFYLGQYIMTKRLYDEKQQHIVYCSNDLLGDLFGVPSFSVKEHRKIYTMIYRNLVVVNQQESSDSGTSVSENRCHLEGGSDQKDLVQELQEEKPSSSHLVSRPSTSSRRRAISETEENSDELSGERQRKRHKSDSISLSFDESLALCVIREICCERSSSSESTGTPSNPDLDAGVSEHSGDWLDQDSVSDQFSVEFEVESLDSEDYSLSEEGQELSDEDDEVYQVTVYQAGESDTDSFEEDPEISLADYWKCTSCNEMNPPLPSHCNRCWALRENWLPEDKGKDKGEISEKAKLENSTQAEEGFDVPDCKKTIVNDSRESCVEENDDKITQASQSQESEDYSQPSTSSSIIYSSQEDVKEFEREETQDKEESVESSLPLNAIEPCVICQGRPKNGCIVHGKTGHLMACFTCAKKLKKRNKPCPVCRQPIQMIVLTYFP", "experiment": "In vitro ubiquitination of GST-Mdm2 (self-ubiquitination)", "type": "biochemical", "conditions": "bacculovirus-purified p19ARF added to GST-Mdm2", "description": "GST-Mdm2 was subjected to an in vitro ubiquitination reaction using purified forms of E1, E2 and Ub-HA in the presence of ATP. […] Glutathione bead-coupled GST-Mdm2 in its ubiquitinated or non-ubiquitinated forms was washed and analyzed on immunoblots using antibodies to HA (upper panel). Middle panel depicts the level of Mdm2 expression and the lower panel, the level of p19^ARF added to the reaction."}, "[2]": {"test_system": "p53", "experiment": "p53 ubiquitination and p53 level in EJ cells", "type": "cell-based, mouse", "source_text": "FIG. 14A-14E. A. In vitro ubiquitination of Mdm2 is inhibited by p19^ARF. GST-Mdm2 was subjected to an in vitro ubiquitination reaction using purified forms of E1, E2 and Ub-HA in the presence of ATP. Addition of bacculovirus-purified p19^ARF at the indicated concentrations blocked Mdm2 ubiquitination. Glutathione bead-coupled GST-Mdm2 in its ubiquitinated or non-ubiquitinated forms was washed and analyzed on immunoblots using antibodies to HA (upper panel). Middle panel depicts the level of Mdm2 expression and the lower panel, the level of p19^ARF added to the reaction. B. p19^ARF expression increases Mdm2 self-ubiquitination in EJ cells. EJ cells were transfected with the indicated plasmids. Cells were harvested 36 h later and proteins ([…]) were immunoprecipitated using Mdm2 antibodies (2A10). Immunoprecipitated material was washed and proteins loaded onto 10% SDS-PAGE, followed by immunoblot analysis with HA-antibodies to detect covalent HA-ubiquitin conjugation to Mdm2 (upper panel). Middle panel depicts level of immunoprecipitated Mdm2. Lower panel represents western analysis of p19^ARF expression levels. C. In vitro ubiquitination of Mdm2 in the presence of p19^ARF and protein extracts. […] The level of p53 immunoprecipitated was monitored in immunoblots using polyclonal antibodies to p53 (middle). […]"}},
  "data": [
    {"molecule": "p19^ARF: Mdm2-regulating protein; in vitro translated, bacculovirus-expressed or transfected (protein) MGRRFLVTVRIQRAGRPLQERVFLVKFVRSRRPRTASCALAFVNMLLRLERILRRGPHRNPGPGDDDGQRSRSSSSAQLRCRFELRGPHYLLPPGARRSAGRLPGHAGGAARVRGSAGCARCLGSPAARLGPRAGTSRHRAIFAFRWVLFVFRWVVFVYRWERRPDRRA", "values": [
      {"measurement": "Mdm2 ubiquitination in vitro", "setting": "[1]", "result": "efficient inhibition of Mdm2 ubiquitination in vitro"},
      {"measurement": "levels of p53", "setting": "[2]", "result": "elevated levels of p53"},
      {"measurement": "degree of p53 ubiquitination", "setting": "[2]; Flag-Mdm2, wt p53, HA-Ub, p19ARF constructs 1 μg each", "result": "noticeable decrease in the degree of p53 ubiquitination"}
    ]}
  ]
}
